Laboratory results reported in the supplement of paper PMC9170038.

System: MS2 coat protein
Test: apparent KD of MS2 coat protein; designed switch direction (-1 OFF switch, 1 ON switch): -1; higher = weaker reporter binding
Outline: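 The reported apparent KD is a per-design median over clusters, from curve fits of normalised cluster fluorescence. Protein titrations used SNAP-549-labelled MS2 coat protein, doubled from 0.7 or 1.5 nM to 3 µM, in Tris-HCl pH 7.5 buffer with KCl, MgCl2, BSA, DTT, tRNA and Tween-20, with no input, 200 uM small-molecule ligand, or an oligonucleotide input. The RNA switches were transcribed on Illumina chips by stalled E. coli RNA polymerase.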

[1] = input ligand: microRNA oligo, concentration not stated
[2] = Eterna round: R95, input ligand: microRNA oligo, concentration not stated
[3] = Eterna round: R95, input ligand: FMN 200 uM
[4] = Eterna round: R95, input ligand: none

Row | Sequence | apparent KD of MS2 coat protein (input ligand: FMN 200 uM) [nM] | apparent KD of MS2 coat protein [1] [nM] | apparent KD of MS2 coat protein (input ligand: none) [nM] | apparent KD of MS2 coat protein [2] [nM] | apparent KD of MS2 coat protein [3] [nM] | apparent KD of MS2 coat protein [4] [nM]
1 | AAGAUGCGGAUAGGAUAUGGAAAGAAAAGAAAAUUAGAAGGGUUGGUUAAAAUACAUGAGGAUCACCCAUGUGAAUCAUGAGAA [AK ExNG1-2] (Eterna round: R96, puzzle: Exclusion NG 1) | 132 | 89.8 | 99.9 | – | – | –
2 | GGGCGUAGGCAGGAUAUGUAAGGCUGUUGGUCUAUAGAAGGGUUUACAUGAGGAUCACCCAUGUGACCGAACCG [Eternabot (L2) Solution 16] (Eterna round: R97, puzzle: Exclusion 6) | 18.2 | – | 16.4 | – | – | –
3 | CAAAGAACAUGAGGAUCACCCAUGUGAACCUUCGUUCGACCUCAGGAUAUCCGCCACCGUCCGCAGGAGAAGGGAGGGAAAAUA [Isinar] (Eterna round: R96, puzzle: Exclusion NG 3) | 138 | 64.9 | 72.8 | – | – | –
4 | AACUGGACAGGAUAUGUUCUUGAGCACUUGAGGAUCACCCAAGUCAUCAAGAACUCAGGCACAGAAGGGUUUAUGC [salish99_ex5_r4_003] (Eterna round: R97, puzzle: Exclusion 5) | 19 | – | 13.4 | – | – | –
5 | GACUGGGCAGGAUAUACAUGAGGAUCACCCAUGUGUCUGCGUCAGGCACGUGUAGACGGUAGAAGGGCCUACAC [ChP 13.04.2015 #16] (puzzle: Exclusion 3) | – | – | – | 11.9 | – | –
6 | UUAUUAUAUGUAGGAUAUGCAUAUUAUUAUUAUGCAGAAGGACAUGAGGAUCACCCAUGUAUAUUAUUAUUAUAUAUUAUAUAU [Title] (Eterna round: R96, puzzle: Exclusion NG 1) | – | 23.6 | – | – | – | –
7 | GUCACUAGAGGAUAUACAAUGGUAUAUGAUCCUAGAGACAUACAUGAGGAUCACCCAUGUAGAAGGCUAGUAUU [Exclusion 2 - 5] (puzzle: Exclusion 2) | – | – | – | 58.3 | – | –
8 | GAGAGGUCAGGAUAUACGGAGAGAGGGAGUAGGUGAGGGUAACAUGAGGAUCACCCAUGUAGAAGGGACUAAGG [JR_Exclu2_Sub076] (puzzle: Exclusion 2) | – | – | – | 27.4 | 26.4 | 39.9
9 | GUUUUGAUAGGAUAUACAUGAGGAUCACCCAUGUCCCACCCGUUACCUCUGACCCUAUGUAGAAGGAUCGUUUA [Exy#15] (Eterna round: R97, puzzle: Exclusion 3) | 27.5 | – | 37.2 | – | – | –
10 | UCCUGCUGGCGAGGAUAUCCUGUGCGGUUCCGGCUCGUGUCUGUUACAUGAGGAUCACCCAUGUGGGAGAAGGUGUCUGUGGCC [Design 98] (Eterna round: R96, puzzle: Exclusion NG 2) | 18.6 | 14.1 | 20.5 | – | – | –
11 | ACAUGAGGAUCACCCAUGUCCGGCUGGUCUGGUCCGGCUGUCGAGGAUAUAGUCCGGUGUUCGCGCUAGAAGGCGAGGGCUGGA [Aenatbe mod 49] (Eterna round: R96, puzzle: Exclusion NG 3) | 109 | 68.3 | 97.5 | – | – | –
12 | AUCCUACAUGAGGAUCACCCAUGUCAGGAUAUCCAAGAAAUAUGGCCGUAUCGGCCAUGGAGAAGGGAUAUGGG [jl-ex1-4.67 ViennaUCT mod] (Eterna round: R97, puzzle: Exclusion 1) | 26.5 | – | 115 | – | – | –
13 | GCAGCUAAUCGAGGAUAUCAGCACGUUUAGUGCUGAGAAGGCGACAUGAGGAUCACCCAUGUGAUCAAUUAAUAUUAAUGCUGC [ENG1/11-A2] (Eterna round: R96, puzzle: Exclusion NG 1) | 1270 | 344 | 659 | – | – | –
14 | CCAAGCUUAUUCAUUAACCACAUGAGGAUCACCCAUGUCUUGGCAAUUAUGACUUGCCCGUCAGGUGCUCGUCUUAU [Sensor-V1 #34] (Eterna round: R97, puzzle: Sensor, turn-off variant 1) | 32.2 | – | 32.9 | – | – | –
15 | CUGAGGUAGCGGUCCUAUGACAUGAGGAUCACCCAUGUACCUCGCUACGAGCUUUUUGCUCGUCUUAUAAUUCUCGG [JL Atriat mod 2] (puzzle: Sensor v3, turn-off variant 1) | – | – | – | 141 | 573 | 643
16 | UUGCCGCGAGGAUAUGCAGACGGGUUCAAUACGUGUCUCGGACUUGAGGAUCACCCAAGUAGAAGGCUUUUUAU [LRO-Excl2-13-mod _r4_621 by salish99] (Eterna round: R97, puzzle: Exclusion 2) | 16.2 | – | 14.8 | – | – | –
17 | GCAGCGUAUGUAGGAUAUCGGUCAGUUUCUGAUCGAGAAGGACAUGAGGAUCACCCAUGUAAAUUACCGACUUUGUCGGGCUGC [JL ENG1 3.67] (Eterna round: R96, puzzle: Exclusion NG 1) | 16.3 | 14.7 | 16.3 | – | – | –
